From patent US6479237 (INSTITUT NATIONAL DE LA SANTE ET DE LA RECHERCHE MEDICALE …, dated 2002) come the findings set out here.

B2: LexA-Cdk7 (other, UniProt P0A7C2 1-202, looked up)
chain: MKALTARQQEVFDLIRDHISQTGMPPTRAEIAQRLGFRSPNAAEEHLKALARKGVIEIVSGASRGIRLLQEEEEGLPLVGRVAAGEPLLAQQHIEGHYQVDPSLFKPNADFLLRVSGMSMKDIGIMDGDLLAVHKTQDVRNGQVVVARIDDEVTVKRLKKQGNKVELLPENSEFKPIVVDLRQQSFTIEGLAVGVIRNGDWLMALDVKSRAKRYEKLDFLGEGQFATVYKARDKNTNQIVAIKKIKLGHRSEAKDGINRTALREIKLLQELSHPNIIGLLDAFGHKSNISLVFDFMETDLEVIIKDNSLVLTPSHIKAYMLMTLQGLEYLHQHWILHRDLKPNNLLLDENGVLKLADFGLAKSFGSPNRAYTHQVVTRWYRAPELLFGARMYGVGVDMWAVGCILAELLLRVPFLPGDSDLDQLTRIFETLGTPTEEQWPDMCSLPDYVTFKSFPGIPLHHIFSAAGDDLLDLIQGLFLFNPCARITATQALKMKYFSNRPGPTPGCQLPRPNCPVETLKEQSNPALAIKRKRTEALEQGGLPKKLIF
notes: Fusion protein expressed in yeast L40 from the ADH constitutive promoter; also called Lex-Cdk7

For experiment [1], the target named is B2. Nature of the experiment: yeast three-hybrid (L40), LexA-Cdk7 with Cyclin H expressed; growth test and β-galactosidase test.
Another experiment deals with T1, VP16 fused with XPD (UniProt P18074 1-760).
T1 construct: One of the five TFIIH core sub-units put into pVP16 as specificity controls
Described as above.

A further experiment has as its target T2, VP16 fused with XPB (UniProt P19447 1-782).
T2 construct: One of the five TFIIH core sub-units put into pVP16 as specificity controls
The description is as above.

The target of experiment [2] is B2. Nature of the experiment: cell-based or functional assay.

T2 sequence (P19447 whole entry, the tested form may be a part): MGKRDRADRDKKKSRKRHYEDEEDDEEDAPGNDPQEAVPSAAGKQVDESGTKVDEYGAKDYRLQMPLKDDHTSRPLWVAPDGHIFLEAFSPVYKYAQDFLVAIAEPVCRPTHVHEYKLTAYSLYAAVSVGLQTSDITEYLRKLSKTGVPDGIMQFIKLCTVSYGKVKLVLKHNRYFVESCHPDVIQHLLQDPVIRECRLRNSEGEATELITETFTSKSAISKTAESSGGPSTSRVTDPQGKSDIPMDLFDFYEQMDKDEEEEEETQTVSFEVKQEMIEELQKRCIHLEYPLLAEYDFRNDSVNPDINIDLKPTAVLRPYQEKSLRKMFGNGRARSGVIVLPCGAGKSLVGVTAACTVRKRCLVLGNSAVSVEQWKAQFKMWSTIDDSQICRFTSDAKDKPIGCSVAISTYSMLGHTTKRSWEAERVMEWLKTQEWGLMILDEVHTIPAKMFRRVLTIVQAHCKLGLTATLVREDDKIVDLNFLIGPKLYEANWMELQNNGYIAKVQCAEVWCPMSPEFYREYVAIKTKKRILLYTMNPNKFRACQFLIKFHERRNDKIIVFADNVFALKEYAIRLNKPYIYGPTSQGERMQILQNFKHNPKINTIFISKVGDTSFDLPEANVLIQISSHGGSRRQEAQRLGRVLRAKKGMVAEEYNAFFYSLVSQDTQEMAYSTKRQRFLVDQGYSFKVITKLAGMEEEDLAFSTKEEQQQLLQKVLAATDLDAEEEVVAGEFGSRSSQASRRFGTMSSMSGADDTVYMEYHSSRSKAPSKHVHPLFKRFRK

B1: VP16 fused with p44 (other)
chain: MDEEPERTKRWEGGYERTWEILKEDESGSLKATIEDILFKAKRKRVFEHHGQVRLGMMRHLYVVVDGSRTMEDQDLKPNRLTCTLKLLEYFVEEYFDQNPISQIGIIVTKSKRAEKLTELSGNPRKHITSLKKAVDMTCHGEPSLYNSLSIAMQTLKHMPGHTSREVLIIFSSLTTCDPSNIYDLIKTLKAAKIRVSVIGLSAEVRVCTVLARETGGTYHVILDESHYKELLTHHVSPPPASSSSECSLIRMGFPQHTIASLSDQDAKPSFSMAHLDGNTEPGLTLGGYFCPQCRAKYCELPVECKICGLTLVSAPHLARSYHHLFPLDAFQEIPLEEYNGERFCYGCQGELKDQHVYVCAVCQNVFCVDCDVFVHDSLHCCPGCIHKIPAPSGV
notes: One of the five TFIIH core sub-units put into pVP16 as specificity controls
For B1, the binding result with LexA-Cdk7 [1] was “no binding”.

For B2, the binding result in the experiment with VP16 fused with XPD and with VP16 fused with XPB was “no binding” throughout.

B3: VP16 fused with p34 (other)
chain: MVSDEDELNLLVIVVDANPIWWGKQALKESQFTLSKCIDAVMVLGNSHLFMNRSNKLAVIASHIQESRFLYPGKNGRLGDFFGDPGNPPEFNPSGSKDGKYELLTSANEVIVEEIKDLMTKSDIKGQHTETLLAGSLAKALCYIHRMNKEVKDNQEMKSRILVIKAAEDSALQYMNFMNVIFAAQKQNILIDACVLDSDSGLLQQACDITGGLYLKVPQMPSLLQYLLWVFLPDQDQRSQLILPPPVHVDYRAACFCHRNLIEIGYVCSVCLSIFCNFSPICTTCETAFKISLPPVLKAKKKKLKVSA
notes: as for B1
Regarding B3, the binding result with LexA-Cdk7 [1] is on record as “no binding”.

B4: VP16 alone (not containing any fused protein) (other)
chain: STAPPTDVSLGDELHLDGEDVAMAHADALDDFDLDMLGDGDSPGPGFTPHDSAPYGALDMADFEFEQMFTDALGIDEYGG
notes: Negative control
Regarding B4, in the experiment with LexA-Cdk7 [1], the binding result was “no binding”.

B5: VP16-MAT1 (other)
chain: STAPPTDVSLGDELHLDGEDVAMAHADALDDFDLDMLGDGDSPGPGFTPHDSAPYGALDMADFEFEQMFTDALGIDEYGGMDDQGCPRCKTTKYRNPSLKLMVNVCGHTLCESCVDLLFVRGAGNCPECGTPLRKSNFRVQLFEDPTVDKEVEIRKKVLKIYNKREEDFPSLREYNDFLEEVEEIVFNLTNNVDLDNTKKKMEIYQKENKDVIQKNKLKLTREQEELEEALEVERQENEQRRLFIQKEEQLQQILKRKNKQAFLDELESSDLPVALLLAQHKDRSTQLEMQLEKPKPVKPVTFSTGIKMGQHISLAPIHKLEEALYEYQPLQIETYGPHVPELEMLGRLGYLNHVRAASPQDLAGGYTSSLACHRALQDAFSGLFWQPS
Regarding B5, the “inhibition of the β-Gal activity by methionine (repression of Cyclin H)” value in the experiment with LexA-Cdk7 [2] is over 6 fold.
